B1: 50-bp Cy3/Cy5 FRET dsDNA (dsDNA)
DNA 1: CCACACTGTCGCCGCCGACGTCTGTGATATGGCGTTGTTGCGCCGCCGAC
DNA 2: GTCGGCGGCGCAACAACGCCATATCACAGACGTCGGCGGCGACAGTGTGG
B2: shDNA (21-mer/34-mer hairpin) (structured_DNA)
DNA 1: GTTTTTAGTTTATTGGGCGCG
DNA 2: CGCGCCCAGCTTTCCCAGCTAATAAACTAAAAAC

Experiments:
mKu WT [1] = target: T1, mKu WT (Mycobacterium tuberculosis, UniProt P9WKD9 1-273); test: FRET; 250 nM DNA, 0-305 nM mKu; saturating synapsis signal; EMSA: 25 mM Tris-Cl pH 7.5, 100 mM NaCl, 30 mM KCl, 0.1 mM EDTA, 0.05% Triton X-100, BSA, 2% glycerol, 2 mM DTT, 25 C, 30 min; FRET: 10 mM PBS pH 7.4, 25 C; cryo-EM: 4 C, 30 min; details: protein: recombinant; pET16b); chain copies: 2; label: S4: 5'-Cy5, 3'-Cy3; complement (S5): 5'-Cy3, 3'-Cy5; blunt
T1 sequence: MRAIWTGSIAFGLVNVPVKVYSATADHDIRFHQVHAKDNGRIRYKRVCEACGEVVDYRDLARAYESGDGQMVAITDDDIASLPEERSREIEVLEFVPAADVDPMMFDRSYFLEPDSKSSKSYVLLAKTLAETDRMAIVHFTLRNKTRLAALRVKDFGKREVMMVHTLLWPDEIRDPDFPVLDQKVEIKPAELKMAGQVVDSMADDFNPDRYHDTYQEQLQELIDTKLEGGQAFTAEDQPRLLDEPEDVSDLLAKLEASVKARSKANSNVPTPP

mKu WT [2] = target: T1, mKu WT; test: cryo-EM; 5 uM mKu dimer and 5 uM DNA; supercomplex; EMSA: 25 mM Tris-Cl pH 7.5, 100 mM NaCl, 30 mM KCl, 0.1 mM EDTA, 0.05% Triton X-100, BSA, 2% glycerol, 2 mM DTT, 25 C, 30 min; FRET: 10 mM PBS pH 7.4, 25 C; cryo-EM: 4 C, 30 min; details: protein: recombinant; pET16b); chain copies: 2; hairpin at one end, other end blunt

Binder	binding result (mKu WT [1])	binding result (mKu WT [2])
B1	binds	–
B2	–	binds

Source: article PMC12784962, “https://orcid.org/0000-0002-3633-7823 Baral Joydeep Department of Bioscience and Biotechnology, Indian Institute of Technology Kharagpur, West Midnapore 721302, West Bengal, India”
